{"source": "patent US9623039B2", "about": "“Treatment and prevention of pathological conditions using iduna related techniques and compositions” (VALTED, LLC, priority 2010, dated 2017)", "molecules": {"B1": {"name": "Iduna: novel NMDA-induced cell survival protein, PAR-dependent E3 ligase; 359 amino acids (protein)", "chain": "MEMAGCGEIDHSINMLPTNKKANESCSNTAPSLTVPECAICLQTCVHPVSLPCKHVFCYLCVKGASWLGKRCALCRQEIPEDFLDKPTLLSPEELKAASRGNGEYAWYYEGRNGWWQYDERTSRELEDAFSKGKKNTEMLIAGFLYVADLENMVQYRRNEHGRRRKIKRDIIDIPKKGVAGLRLDCDTNTVNLARESSADGADSGSAQTGASVQLAVPSSTRPLTSVDGQLTSPVTPSPDAGISLEDSFAHLQLSGDSIAERSHRGEGEEDHESPSSGRVPDTSVEETESDASSDSEDAPVVVAQHSLTQQRPLVPNGNQTVADQSDRSGTDRSVAGGGTMSVNVRSRRPDGQCTVIEV"}}, "key": {"PAR polymer": {"test_system": "PAR polymer", "test": "Competition binding of unlabeled PAR polymer against [32P]-labeled PAR polymer", "method": "The affinity of Iduna and Iduna-YRAA for PAR binding was determined by a competition assay with increasing concentrations of unlabeled PAR polymer against 2.5 nM [^32P]-labeled PAR polymer (mean size of 40 ADP-ribose units) (FIG. 29). […] The PAR polymer synthesized by in vitro automodification of PARP-1 has a mean length of 40 ADP-ribose residues and accordingly the concentration of PAR is given as a function of polymer molecules with a mean size of 40 ADP-ribose units. These concentrations of PAR polymers are within the range of polymer concentrations found in intact cells during NMDA excitotoxicity and N-methyl-N-nitro-N-nitrosoguanidine (MNNG) toxicity. PAR polymer fails to bind to Iduna-YRAA (FIG. 29). […] The observed Kd is 10 times less than the PAR polymer concentration found after NMDA-induced excitotoxicity in cortical neurons.\nNitrocellulose PAR-binding Assay: Synthetic peptides or purified proteins were diluted in TBS-T buffer (1 μg/μl) and loaded onto a nitrocellulose membrane (0.05 μm) using a dot blot manifold system (Life Technologies). The membranes were washed once with TBS-T buffer, removed from the manifold and air dried. The membranes were then incubated in 10 ml of TBS-T buffer containing an indicated concentration of both [^32P]-labeled automodified PARP-1 and [^32P]-labeled PAR polymer for 3 h at room temperature with constant shaking. The membranes were washed with TBS-T buffer at 4° C. until no radioactivity could be detected in the waste. Finally, the membrane was air dried and subjected to autoradiography on Bio-Max MR (Kodak) films or analyzed by Cerenkov counting using an Instant Imager system (Perkin Elmer)."}, "cortical neurons": {"test_system": "cortical neurons", "test": "MNNG-induced cell death in cortical neurons", "type": "cell-based, mouse", "conditions": "MNNG 50 μM for 15 min", "method": "Primary Neuronal Culture Preparation: Primary cortical cell cultures were prepared from gestational day 15 mouse embryos as previously described. Experiments were performed at DIV (day in vitro) 14. Under these conditions, neurons represent 90% of the cells in the culture. Mature neurons were washed with control salt solution (CSS) containing 120 mM NaCl, 5.4 mM KCl, 1.8 mM CaCl2, 25 mM Tris-HCl pH 7.4 and 15 mM D-glucose. To induce NMDA-mediated […], 50 μM NMDA and 10 μM glycine in CSS solution was applied to the cells for 5 min, then the cells were washed and re-supplemented with minimum essential medium containing 10% horse serum. […]\nCell Death Assessment: Following exposure of neuronal cultures to the various treatments neuronal survival was quantified and presented as percent of cell death. Percent cell death was determined as the ratio of live-to-dead cells compared with the percent cell death in control wells to account for cell death attributable to mechanical stimulation of the cultures. Quantification of neuronal survival was determined by staining treated cultures with 5 μM Hoechst 33342 and 2 μM propidium iodide (PI) (Invitrogen, Carlsbad, Calif.). […] The numbers of total and dead (PI positive) cells were counted by automated computer assisted software (Axiovision 4.6, Zeiss, Germany). […]"}, "MCF7 cells [1]": {"test_system": "MCF7 cells", "test": "Determination of apurinic/apyrimidinic (AP) sites", "type": "cell-based, human", "conditions": "1 h", "method": "Determination of apurinic/apyrimidinic (AP) sites. The amount of AP sites in genomic DNA was monitored by a DNA damage quantification kit (BioVision). Briefly, cells were treated with either DMSO or 500 μM MNNG for 15 min, and then replaced with normal growth media. After 1 h, cells were scraped and harvested at 500×g for 5 min and washed once with PBS. Genomic DNA was isolated using a Biovision Genomic DNA Isolation Kit (BioVision) and then AP sites on the 0.5 μg of genomic DNA was labeled with biotin by the Aldehyde Reactive Probe (ARP) reagent (supplied with the DNA damage quantification kit) for 1 h at 37° C. To precipitate the biotin-tagged DNA, sample was mixed with TE buffer containing 2% glycogen and then sequentially incubated with ice cold 70% ethanol for 30 min at −20° C. […] To determine of the number of AP sites in DNA, samples were dissolved in TE buffer and then transferred into 96 well plate with DNA binding buffer (supplied with the DNA damage quantification kit). After 12 h, samples were washed five times with DNA washing buffer (supplied with the DNA damage quantification kit) and then biotin labeled AP sites were quantified using an avidin-biotin assay. Each sample and standards (supplied with a DNA damage quantification kit) were run in triplicate and the OD was measured at 650 nm using a 96-well plate reader (SpectraMax Plus384 Microplate Reader)."}, "MCF7 cells [2]": {"test_system": "MCF7 cells", "test": "Alkaline comet assay after γ-irradiation", "type": "cell-based, human", "conditions": "γ-irradiation 2 Gy, 15 min", "method": "Comet assay. Single cell gel electrophoresis assay was performed by following the manufacturer's instructions. Briefly, established stable cell lines were irradiated (2 Gy) with a Gammacell irradiator and then further incubated for 15 min at 37° C. Cells were collected at 500×g at 4° C. and rinsed twice with ice cold PBS (Ca++ and Mg++ free). A total of 5×10^5 cells were counted and resuspended into PBS (Ca++ and Mg++ free) and then combined with LMAgarose (low melting agarose) at a ratio 1:10 (v/v). Each sample was spotted into CometSlide™ and lysed with buffer (supplied with CometAssay Kit, Trevigen) for 1 h at 4° C. After draining the excess lysis buffer, slides were immersed with alkaline unwinding solution (200 mM NaOH, pH>13, 1 mM EDTA) for 1 h at RT. To the single cell electrophoresis, each comet slide was placed in electrophoresis slide tray with 1 L of alkaline unwinding solution and applied to 21 Volts for 30 min for electrophoresis. After draining the excess electrophoresis buffer, slides were rinsed twice with dH2O and then fixed with 70% ethanol for 5 min. To facilitate single cell observation, slides were dried at 40° C. and stained with SYBR Green I (supplied with CometAssay Kit) for 5 min at 4° C. […] Fifty cells per slide were monitored and the DNA damage was calculated using comet tail length and head diameter parameters."}}}
{"molecule": "B1", "values": [{"measurement": "maximum binding capacity (Bmax)", "setting": "PAR polymer; competitive binding curve", "value": "3.04 ± 0.16", "unit": "µmol"}, {"measurement": "Kd", "setting": "PAR polymer; homologous competitive binding curve, Cheng-Prusoff equation, read-out: dissociation constant (Kd)", "value": 12, "unit": "nM"}, {"measurement": "EC50", "setting": "PAR polymer; unlabeled PAR polymer against 2.5 nM [32P]-labeled PAR polymer, mean size 40 ADP-ribose units, read-out: EC50 of wild type Iduna for PAR polymer", "value": "14.5 ± 0.13", "unit": "nM"}, {"measurement": "protection against MNNG-induced cell death", "setting": "cortical neurons", "value": "protects neuronal cultures against MNNG-induced cell death"}, {"measurement": "increase in AP sites after MNNG", "setting": "MCF7 cells [1]", "value": "completely prevented"}, {"measurement": "comet head diameter and tail length", "setting": "MCF7 cells [2]", "value": "dramatically prevents the reduction in head diameter and increase in tail length"}]}
